Ends that are not written are not given here. * marks the point of attachment. 5FAM = O=C1OC2(c3ccc(O)cc3Oc3cc(O)ccc32)c2ccc(C(=O)*)cc21
Key:
[1] = system: leaf senescence in Arabidopsis; details: ref Gully et al., 2015; cited from earlier work
From the text: Senescence, a crucial biological event in plant development, involves the coordinated breakdown of cellular components to recycle nutrients, aiding adaptation to changing environments. It optimizes nutrient storage and reuse, particularly in leaves, the primary photosynthetic organs. Initiation of leaf senescence prompts various physiological changes, including chlorophyll (Chl) reduction and macromolecule degradation, enabling nutrient recycling that supports the growth of seeds and fruits ([Yang et al., 2014]; [Kim et al., 2018]; [Woo et al., 2019]; [Guo et al., 2021]). Efficient senescence ...

[2] = system: ANJEA-FERONIA (ANJ–FER) receptor complex; design: method as in Liu et al., 2021; details: ref Liu et al., 2021; cited from earlier work
[3] = system: FERONIA (FER) / EFR/FLS2-BAK1 complex; design: method as in Stegmann et al., 2017; details: ref Stegmann et al., 2017; cited from earlier work
[4] = target: T1, MIK2 ectodomain (MIK2^LRR, residues 45-707) fused with a 6x His-MBP tag (Arabidopsis thaliana, UniProt Q8VZG8 45-707); experiment: MST; Monolith NT.115; 0.05 μM 5-FAM-labelled peptide, MIK2^LRR diluted from 20 μM in ddH2O, 10 min at room temperature; 20% LED power, 40% MST power; details: both partners purified
T1 construct: ectodomain residues 45-707, without the putative N-terminal signal peptide; Cloned into pET41 with a 6x His-MBP tag; no cleavage of the tag is told; also called His-MBP-tagged MIK2^LRR; ectodomain of MIK2; source: E. coli BL21, purified (Mag-Beads His-Tag Protein Purification Kit)
T1 sequence (looked up): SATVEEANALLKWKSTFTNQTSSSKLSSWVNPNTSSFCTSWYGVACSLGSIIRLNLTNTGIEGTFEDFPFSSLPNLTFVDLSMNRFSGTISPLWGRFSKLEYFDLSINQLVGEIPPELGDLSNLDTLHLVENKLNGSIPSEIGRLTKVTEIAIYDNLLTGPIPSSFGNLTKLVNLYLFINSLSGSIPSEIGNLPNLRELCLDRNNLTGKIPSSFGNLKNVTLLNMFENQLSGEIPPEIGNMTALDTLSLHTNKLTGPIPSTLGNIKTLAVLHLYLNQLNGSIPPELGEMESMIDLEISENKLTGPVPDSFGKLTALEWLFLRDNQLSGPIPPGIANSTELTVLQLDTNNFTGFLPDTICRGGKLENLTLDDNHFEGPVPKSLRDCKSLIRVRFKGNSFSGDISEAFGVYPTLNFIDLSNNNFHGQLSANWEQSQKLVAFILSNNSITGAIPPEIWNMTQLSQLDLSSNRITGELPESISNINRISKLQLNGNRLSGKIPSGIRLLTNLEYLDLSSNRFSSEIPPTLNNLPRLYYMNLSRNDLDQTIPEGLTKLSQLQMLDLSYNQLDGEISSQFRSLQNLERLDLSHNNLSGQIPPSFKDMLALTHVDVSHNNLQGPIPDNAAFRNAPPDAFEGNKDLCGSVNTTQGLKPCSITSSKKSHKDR

[5] = target: T2, MIK2 ectodomain (MIK2^LRR, residues 45-707) fused with a 6x His-MBP tag (Arabidopsis thaliana, UniProt Q8VZG8 45-707); experiment: MST; in presence of competitor SCOOP10
T2 chain: T1 sequence (looked up)

[6] = target: T2, MIK2 ectodomain (MIK2^LRR, residues …); experiment: MST; in presence of competitor SCOOP12
[7] = target: T1, MIK2 ectodomain (MIK2^LRR, residues …); experiment: MST; Figure 5F, titrations in the absence of the competing peptide; conditions of these titrations not told apart from the others; details: both partners purified
[8] = target: T3, MIK2 ectodomain (MIK2^LRR, residues 45-707) fused with a 6x His-MBP tag (Arabidopsis thaliana), Q8VZG8; experiment: MST; Figure 5F, competition: 0.5 μM FAM-SCOOP10 and 15 μM MIK2^LRR mixed 10 min at room temperature in the dark, then a range of concentrations of SCOOP12, 10 min; 20% LED power, 20% MST power; the reverse set-up (SCOOP10 on MIK2-SCOOP12) is not described
T3 chain: T1 sequence (looked up)

In the case of “plant elicitor peptide PEP1 (ATKVKAKQRGKEKVSSGRPGQHN; Elicitor peptide 1; UniProt Q9LV87 70-92, looked up) [plant elicitor peptide, one of the first plant phytocytokines]”, the leaf senescence modulation [1] is listed as “function as a leaf senescence modulator in Arabidopsis”.

In the case of “RALF23: RAPID ALKALINIZATION FACTOR (RALF) peptide (ATRRYISYGALRRNTIPCSRRGASYYNCRRGAQANPYSRGCSAITRCRRS; Protein RALF-like 23; UniProt Q9LUS7 89-138, looked up)”, the “competition with POLLEN COAT PROTEIN B-class peptides” value [2] is given as “compete with the POLLEN COAT PROTEIN B-class peptides” and the “effect on FER-mediated receptor complex assembly” value [3] is given as “suppresses the formation of the EFR/FLS2-BAK1 complex”.

B1: SCOOP12 peptide labeled with 5-FAM at the N terminus (FAM-SCOOP12) (peptide)
chain: 5FAM-PVRSSQSSQAGGR
With B1 the Kd [4] was 22 ± 3.02 nM and the Kd [5] was 1160 nM.

B2: SCOOP10 peptide labeled with FAM at the N-terminus (5'-FAM-SCOOP10) (peptide)
chain: 5FAM-PNGDIFTGPSGSGHGGGR
In the case of B2, the Kd [6] is reported as 279000 nM, the Kd [4] is reported as 13.5 ± 1.47 nM and the Kd [7] is reported as 753 nM.

B3: SCOOP12 peptide (unlabeled, used as competitor), B3H7I1 44-78 (peptide)
chain: PVRSSQSSQAGGR
modifications: not checked
In the case of B3, the KD printed for the inhibition of the SCOOP10-MIK2 interaction by SCOOP12 [8] is reported as 279000 nM.

Source: publication PMC11630628 (Molecular Plant, 2024)
